What all share (test): filter binding
The target in series [1] is T1, Pab2 (nuclear poly(A) binding protein) (Schizosaccharomyces pombe, UniProt O14327 1-166).
T1 sequence: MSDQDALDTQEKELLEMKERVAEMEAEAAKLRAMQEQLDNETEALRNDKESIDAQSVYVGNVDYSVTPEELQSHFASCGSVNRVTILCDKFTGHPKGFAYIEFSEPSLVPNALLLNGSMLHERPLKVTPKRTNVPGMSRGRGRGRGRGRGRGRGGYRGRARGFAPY

Another series has as its target T2, PABPN1 (His-PABPN1) (bovine, UniProt Q28165 1-306).
T2 sequence: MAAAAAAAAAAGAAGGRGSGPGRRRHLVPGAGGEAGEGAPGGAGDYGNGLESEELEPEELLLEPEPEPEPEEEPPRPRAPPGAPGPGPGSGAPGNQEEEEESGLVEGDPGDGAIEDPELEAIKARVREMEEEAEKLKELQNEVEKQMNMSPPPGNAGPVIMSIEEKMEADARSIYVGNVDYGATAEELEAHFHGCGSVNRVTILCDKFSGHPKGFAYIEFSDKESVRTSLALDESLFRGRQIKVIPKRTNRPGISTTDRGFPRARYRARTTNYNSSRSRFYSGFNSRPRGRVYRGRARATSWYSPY

The target in series [2] is T1, Pab2 (nuclear poly(A) binding protein). The source holds these as a separate data set.

A word on the Kd: it is the constant that tells how readily two partners part at equilibrium. Read a high Kd as a looser complex. Consider AAAAAAAAAAAAAA (ssRNA) [A14], for which the dissociation constant (Kd) in series [1] was 5.3 ± 1.1 nM.

B1: A100 (ssRNA)
RNA: AAAAAAAAAAAAAAAAAAAAAAAAAAAAAAAAAAAAAAAAAAAAAAAAAAAAAAAAAAAAAAAAAAAAAAAAAAAAAAAAAAAAAAAAAAAAAAAAAAAA
Regarding B1, the binding result (in the series with PABPN1 (His-PABPN1); in series [2]) was “binds” throughout.

Source of the values: publication PMC5340911.
